Laboratory results from the supplement of paper PMC9112550, “Optimization of the antimicrobial peptide Bac7 by deep mutational scanning” (BMC Biology, 2022).

Tested on: Escherichia coli TOP10
Assay: shrunken log2 fold change of peptide-encoding DNA abundance (4.5 h post-induction vs induction); higher = less antimicrobial activity (less host growth inhibition)
Settings: time post-induction: 4.5 h; library: site-saturation at positions 5, 18, 19, 20
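Also: peptides expressed intracellularly from a pBAD plasmid library in pooled LB shake-flask culture, induced with 0.3% L-arabinose, DNA abundance read by NGS, three biological replicates, DESeq2 with apeglm shrinkage.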

RRIRMRPPRLPRPRPRPYFRPRP
shrunken log2 fold change: -0.575

RRIRCRPPRLPRPRPRPWAMPRP
shrunken log2 fold change: -0.226

RRIRKRPPRLPRPRPRPNDMPRP
shrunken log2 fold change: 0.194

RRIRARPPRLPRPRPRPEHWPRP
shrunken log2 fold change: 0.261

RRIRCRPPRLPRPRPRPEYYPRP
shrunken log2 fold change: -0.159

RRIRIRPPRLPRPRPRPDELPRP
shrunken log2 fold change: 0.0623

RRIRARPPRLPRPRPRPRAKPRP
shrunken log2 fold change: 0.868

RRIRYRPPRLPRPRPRPPVWPRP
shrunken log2 fold change: 0.0256

RRIRLRPPRLPRPRPRPQGMPRP
shrunken log2 fold change: -0.0379

RRIRMRPPRLPRPRPRPCHDPRP
shrunken log2 fold change: -0.347

RRIRPRPPRLPRPRPRPPPRPRP
shrunken log2 fold change: 0.91

RRIRHRPPRLPRPRPRPADGPRP
shrunken log2 fold change: -0.279

RRIRNRPPRLPRPRPRPEYGPRP
shrunken log2 fold change: -0.284

RRIRHRPPRLPRPRPRPTGWPRP
shrunken log2 fold change: 0.841

RRIRRRPPRLPRPRPRPVSVPRP
shrunken log2 fold change: 0.308

RRIRPRPPRLPRPRPRPEGQPRP
shrunken log2 fold change: 0.798

RRIRERPPRLPRPRPRPSDIPRP
shrunken log2 fold change: -0.0101

RRIRMRPPRLPRPRPRPGVQPRP
shrunken log2 fold change: 0.16

RRIRSRPPRLPRPRPRPDCNPRP
shrunken log2 fold change: 0.265

RRIRARPPRLPRPRPRPRGPPRP
shrunken log2 fold change: 0.933

RRIRVRPPRLPRPRPRPKYPPRP
shrunken log2 fold change: -0.188

RRIRSRPPRLPRPRPRPLYTPRP
shrunken log2 fold change: -0.422

RRIRQRPPRLPRPRPRPCRNPRP
shrunken log2 fold change: -0.0117

RRIRGRPPRLPRPRPRPPALPRP
shrunken log2 fold change: 0.881

RRIRWRPPRLPRPRPRPEKRPRP
shrunken log2 fold change: 0.028

RRIRQRPPRLPRPRPRPTIIPRP
shrunken log2 fold change: -0.244

RRIRDRPPRLPRPRPRPGANPRP
shrunken log2 fold change: 0.19

RRIRLRPPRLPRPRPRPGIVPRP
shrunken log2 fold change: -0.16

RRIRKRPPRLPRPRPRPDGPPRP
shrunken log2 fold change: 0.022

RRIRSRPPRLPRPRPRPFLNPRP
shrunken log2 fold change: -1.03

RRIRVRPPRLPRPRPRPYPAPRP
shrunken log2 fold change: -0.715

RRIRKRPPRLPRPRPRPRPLPRP
shrunken log2 fold change: 0.73

RRIRVRPPRLPRPRPRPMDVPRP
shrunken log2 fold change: 0.0265

RRIRIRPPRLPRPRPRPVYMPRP
shrunken log2 fold change: -0.678

RRIRNRPPRLPRPRPRPITVPRP
shrunken log2 fold change: -0.0598

RRIRTRPPRLPRPRPRPEHNPRP
shrunken log2 fold change: -0.353

RRIRMRPPRLPRPRPRPLLKPRP
shrunken log2 fold change: 2.7

RRIRWRPPRLPRPRPRPFINPRP
shrunken log2 fold change: -0.635

RRIRQRPPRLPRPRPRPHCKPRP
shrunken log2 fold change: -0.187

RRIRWRPPRLPRPRPRPYRGPRP
shrunken log2 fold change: -0.0785

RRIRQRPPRLPRPRPRPDSEPRP
shrunken log2 fold change: 0.138

RRIRPRPPRLPRPRPRPYCVPRP
shrunken log2 fold change: -0.479

RRIRMRPPRLPRPRPRPTNCPRP
shrunken log2 fold change: 0.0955

RRIRVRPPRLPRPRPRPETKPRP
shrunken log2 fold change: 0.242

RRIRPRPPRLPRPRPRPLGQPRP
shrunken log2 fold change: 0.0471

RRIRMRPPRLPRPRPRPRVGPRP
shrunken log2 fold change: 1.02

RRIRKRPPRLPRPRPRPLFSPRP
shrunken log2 fold change: -0.0137

RRIRHRPPRLPRPRPRPHNGPRP
shrunken log2 fold change: -0.362

RRIRCRPPRLPRPRPRPKINPRP
shrunken log2 fold change: -0.645

RRIRVRPPRLPRPRPRPVALPRP
shrunken log2 fold change: 0.0693
